In the Human Domainome abundance scans (Beltran et al. 2025):
± gives the uncertainty stated by the source.

B1: Protein maelstrom homolog, residues 3 to 71; numbered along this chain, Q96JY0 (parent)
chain: NRKASRNAYYFFVQEKIPELRRRGLPVARVADAIPYCSSDWALLREEEKEKYAEMAREWRAAQGKDPGP

Variants of: B1
Experiment: abundance fitness (aPCA) (normalised: wild type 0, dead -1); higher = more abundant; growth selection in yeast, the domain comes from the species named
Settings: Homo sapiens

NRKASRNAYYFFVQEKIPELRHRGLPVARVADAIPYCSSDWALLREEEKEKYAEMAREWRAAQGKDPGP [R22H] and NRKASRNAYYFFVQEKIPELRRRGLPVARVADAIPYCSSDWAHLREEEKEKYAEMAREWRAAQGKDPGP [L43H] are within error of each other in abundance fitness: -0.036 ± 0.15 for the first, 0.078 ± 0.16 for the second.

NRKASRNAYYFFVQEKIPELRRRGLPVARVADAIPYYSSDWALLREEEKEKYAEMAREWRAAQGKDPGP [C37Y] and NRKASRNAYYFFVQEKIPELRRRGLPVARVADSIPYCSSDWALLREEEKEKYAEMAREWRAAQGKDPGP [A33S] are within error of each other in abundance fitness: -0.741 ± 0.13 for the first, -0.588 ± 0.088 for the second.

NRKASRNAYYFFVQEKIPELRRRGLPVARVADAIPYCSSDWALLRDEEKEKYAEMAREWRAAQGKDPGP [E46D] and NRKASRNAYYFFVQEKIPELRRRGLPVARVADAAPYCSSDWALLREEEKEKYAEMAREWRAAQGKDPGP [I34A] are within error of each other in abundance fitness: -0.266 ± 0.13 for the first, -0.133 ± 0.065 for the second.

NRKASRNAYYFFVQEKIPELRRRGLPVARVADAIPYCSSDWALLREEEKEKYAEMEREWRAAQGKDPGP [A56E] and NRKASRNAYYFFVQEKIPELRRRGLPVARVADAIPYCSSDWALLREEEKEKYAEMASEWRAAQGKDPGP [R57S] are within error of each other in abundance fitness: -0.101 ± 0.071 for the first, -0.034 ± 0.09 for the second.

First: NRKASRNAYYFFVQEKIPELRRRGLPVARVADAIPYCSSDWALLKEEEKEKYAEMAREWRAAQGKDPGP [R45K]
Second: NRKASRNAYYFFVQEKIPELRRRGLPVARVADAIPYCSSDWALLREEEKEKYAEMAREWRAAQGKDPGK [P69K]
The abundance fitness of the first is lower: -0.023 ± 0.083 for the first, 0.411 ± 0.11 for the second.

NRKASRNAYYFFVQEKIPELRRRGLPVARVADAIPYCSSDWALLREEEKEKYAEMAREWRAAQGKVPGP [D66V] and NRKASRNAYYFFVQEKIPELRRRGLPVARVADAIPYCSSDWAILREEEKEKYAEMAREWRAAQGKDPGP [L43I] are within error of each other in abundance fitness: 0.018 ± 0.049 for the first, -0.16 ± 0.24 for the second.

Compared with NGKASRNAYYFFVQEKIPELRRRGLPVARVADAIPYCSSDWALLREEEKEKYAEMAREWRAAQGKDPGP [R2G], NRKASRNAYYFFVQEKHPELRRRGLPVARVADAIPYCSSDWALLREEEKEKYAEMAREWRAAQGKDPGP [I17H] is lower in abundance fitness: 0.021 ± 0.054 for the first, -0.832 ± 0.24 for the second.

First: NRKASRNAYYFFVQEKIPELRRRGLPVARVADAIPYCSSDWALLWEEEKEKYAEMAREWRAAQGKDPGP [R45W]
Second: NRKASRNAYYFFVQEKIPELRRRGLPVARVADAIPYCSSDWALVREEEKEKYAEMAREWRAAQGKDPGP [L44V]
The abundance fitness of the first is lower: -0.511 ± 0.088 for the first, -0.156 ± 0.069 for the second.

NRKASRNAYYFFVQENIPELRRRGLPVARVADAIPYCSSDWALLREEEKEKYAEMAREWRAAQGKDPGP [K16N] and NRKASRNAYYFFVQEKIPELRRRGLPVARVADAIPYCSSDWALLREEEKEKYAEMAREWRAAPGKDPGP [Q63P] are within error of each other in abundance fitness: 0.082 ± 0.22 for the first, -0.08 ± 0.067 for the second.

NRKASRNAYYFFVQEKIPELRRRGLPVAWVADAIPYCSSDWALLREEEKEKYAEMAREWRAAQGKDPGP [R29W] and NRKASRNAYYFFVQEKIPELRRRGLPLARVADAIPYCSSDWALLREEEKEKYAEMAREWRAAQGKDPGP [V27L] are within error of each other in abundance fitness: -0.47 ± 0.086 for the first, -0.329 ± 0.062 for the second.

First: NRKASRNAYYFFVQEKIPELRRRGLPVARVADAIPYCSSDWALLREEEKEKYAEMAREWRAAQKKDPGP [G64K]
Second: NRKCSRNAYYFFVQEKIPELRRRGLPVARVADAIPYCSSDWALLREEEKEKYAEMAREWRAAQGKDPGP [A4C]
The abundance fitness of the first is higher: 0.048 ± 0.071 for the first, -0.395 ± 0.15 for the second.

First: NRKASRYAYYFFVQEKIPELRRRGLPVARVADAIPYCSSDWALLREEEKEKYAEMAREWRAAQGKDPGP [N7Y]
Second: NRKASRNAYYFFVQEKIPELRRRGLPVARVADAIPYCSSDWALLREEEKEKYAEMAREWRAAQGKDPGV [P69V]
The abundance fitness of the first is lower: -0.44 ± 0.18 for the first, 0.013 ± 0.086 for the second.

First: NRKASRNAYYFDVQEKIPELRRRGLPVARVADAIPYCSSDWALLREEEKEKYAEMAREWRAAQGKDPGP [F12D]
Second: NRKASRNAYYFFVQEKIPELRRRGLPVARVADAIPYCSSDWALLRNEEKEKYAEMAREWRAAQGKDPGP [E46N]
The abundance fitness of the first is lower: -0.403 ± 0.13 for the first, -0.09 ± 0.13 for the second.

Going from NRKAPRNAYYFFVQEKIPELRRRGLPVARVADAIPYCSSDWALLREEEKEKYAEMAREWRAAQGKDPGP [S5P] to NRKASRNAYYFFVQEKIPELRRRGLPVARVADAIPYCSSDWALLREEEKEKYAEMARHWRAAQGKDPGP [E58H], the abundance fitness rises from -0.24 ± 0.16 to 0.246 ± 0.18.

Compared with NRKASRNYYYFFVQEKIPELRRRGLPVARVADAIPYCSSDWALLREEEKEKYAEMAREWRAAQGKDPGP [A8Y], NRKASRKAYYFFVQEKIPELRRRGLPVARVADAIPYCSSDWALLREEEKEKYAEMAREWRAAQGKDPGP [N7K] is higher in abundance fitness: -0.696 ± 0.17 for the first, -0.05 ± 0.092 for the second.

NRKASRNAYYFFVQEKIPELRRRGLPVARVADAIPYCSSDWALLREEEKEKYAEMAFEWRAAQGKDPGP [R57F] and NRKASRNAYYFFVQEKIPELRRRGLPVARVADAIPYCSSDWALLREEEKEKYAEMAREWRAAQGMDPGP [K65M] are within error of each other in abundance fitness: -0.332 ± 0.23 for the first, -0.497 ± 0.14 for the second.

First: NRKASRNAYYFFVQEKIPELRRRGLPVAQVADAIPYCSSDWALLREEEKEKYAEMAREWRAAQGKDPGP [R29Q]
Second: NRKASRNAYYQFVQEKIPELRRRGLPVARVADAIPYCSSDWALLREEEKEKYAEMAREWRAAQGKDPGP [F11Q]
The abundance fitness of the first is higher: 0.041 ± 0.075 for the first, -0.328 ± 0.1 for the second.

Compared with NRKASRNAYYFFVQEAIPELRRRGLPVARVADAIPYCSSDWALLREEEKEKYAEMAREWRAAQGKDPGP [K16A], NRKASRNAYYFFVQEKIPELRRRGLPVASVADAIPYCSSDWALLREEEKEKYAEMAREWRAAQGKDPGP [R29S] is higher in abundance fitness: -0.096 ± 0.12 for the first, 0.221 ± 0.14 for the second.

Going from NRKASRNAYYFFVQEKIPEDRRRGLPVARVADAIPYCSSDWALLREEEKEKYAEMAREWRAAQGKDPGP [L20D] to NRKASRNAYYFFVQEKIPELRRRGLPVARVADAIPYCSQDWALLREEEKEKYAEMAREWRAAQGKDPGP [S39Q], the abundance fitness rises from -0.772 ± 0.16 to 0 ± 0.086.

NRKASRNAYYFFVQEKIPELRRRGLPVARVADAIPYCSSDWALLREEEKEKYAEMSREWRAAQGKDPGP [A56S] gave an abundance fitness of -0.02 ± 0.036.
